Assay results from patent publication US20210072228A1 (UT BATTELLE, published 2021).

Target: the molecule itself
Test: size exclusion chromatography (homodimerization) of GFP-tagged PAN domain purified from HEK293 cells
From the text: These cysteine residues coordinate three disulfide bridges to form a hairpin structure. The inventors hypothesized that cysteine rich PAN domain of G-lecRLKs form disulfide bonds involved in dimerization and subsequent receptor proteolysis to prevent downstream signaling cascades. To address this hypothesis, a GFP tagged PAN domain construct of RLK5 was made. In addition, mutated amino acids in the RLK5 vestigial domain were restored to consensus PAN domain amino acids based on the alignment in FIG. 1, this construct was designated RLK5-restored (RLK5R). Both RLK5 and RLK5R constructs were transfected and overexpressed in HEK293 cells. Proteins were purified on GFP column and loaded into size exclusion column (SEC) to analyze the oligomeric state.

B1: GFP tagged PAN domain construct of RLK5 (SapurV1A.0037s0270.1) (receptor)
chain: DSDYNMDTYEHTFLYGIYPPNEAIIIASLQQCREVCMQDPGCTAATFTNDGTSQCRMKTSPYFSGHQNPSLSSISFVKT
notes: It was expressed in HEK293 cells and purified on a GFP column; not shown: GFP tag
- binding result: no binding
